B1: human SYCE1 full length (amino acids 1–351) (natural protein, UniProt Q8N0S2 1-351, looked up)
chain: MAGRSLTSKAEPTAGAVDRAEKAGGQDTSSQKIEDLMEMVQKLQKVGSLEPRVEVLINRINEVQQAKKKANKDLGEARTICEALQKELDSLHGEKVHLKEILSKKQETLRILRLHCQEKESEAHRKHTMLQECKERISALNLQIEEEKNKQRQLRLAFEEQLEDLMGQHKDLWDFHMPERLAKEICALDSSKEQLLKEEKLVKATLEDVKHQLCSLCGAEGPSTLDEGLFLRSQEAAATVQLFQEEHRKAEELLAAAAQRHQQLQQKCQQQQQKRQRLKEELEKHGMQVPAQAQSTQEEEAGPGDVASPKPLKGERPGAAHQAGPDVLIGQEDTLHPDLSPRGFQEIKELF
notes: synaptonemal complex central element protein 1 (SYCE1), human, full length, amino acids 1–351; also called full-length SYCE1; source: E. coli BL21(DE3), purified (amylose, anion exchange, TEV cleavage, anion exchange, SEC); not shown: His, N-terminal, cleaved; MBP, N-terminal, cleaved
B2: human SYCE1 core (amino acids 25–179) (domain or fragment, UniProt Q8N0S2 25-179, looked up)
chain: GQDTSSQKIEDLMEMVQKLQKVGSLEPRVEVLINRINEVQQAKKKANKDLGEARTICEALQKELDSLHGEKVHLKEILSKKQETLRILRLHCQEKESEAHRKHTMLQECKERISALNLQIEEEKNKQRQLRLAFEEQLEDLMGQHKDLWDFHMPE
notes: also called SYCE1 structural core; source: E. coli BL21(DE3), purified (amylose, anion exchange, TEV cleavage, anion exchange, SEC); not shown: His, N-terminal, cleaved; MBP, N-terminal, cleaved
B3: SYCE1-MBP (C-terminal MBP fusion of SYCE1 core, amino acids 25–179) (domain or fragment, human, UniProt Q8N0S2 25-179, looked up)
chain: GQDTSSQKIEDLMEMVQKLQKVGSLEPRVEVLINRINEVQQAKKKANKDLGEARTICEALQKELDSLHGEKVHLKEILSKKQETLRILRLHCQEKESEAHRKHTMLQECKERISALNLQIEEEKNKQRQLRLAFEEQLEDLMGQHKDLWDFHMPE
notes: source: E. coli BL21(DE3), purified; not shown: MBP, C-terminal, kept
B4: MBP-SYCE1-MBP (N- and C-terminal MBP double fusion of SYCE1 core, amino acids 25–179) (domain or fragment, human, UniProt Q8N0S2 25-179, looked up)
chain: GQDTSSQKIEDLMEMVQKLQKVGSLEPRVEVLINRINEVQQAKKKANKDLGEARTICEALQKELDSLHGEKVHLKEILSKKQETLRILRLHCQEKESEAHRKHTMLQECKERISALNLQIEEEKNKQRQLRLAFEEQLEDLMGQHKDLWDFHMPE
notes: source: E. coli BL21(DE3), purified; not shown: MBP, N-terminal, kept; MBP, C-terminal, kept
B5: MBP-SYCE1 (N-terminal MBP fusion of SYCE1 core, amino acids 25–179) (domain or fragment, human, UniProt Q8N0S2 25-179, looked up)
chain: GQDTSSQKIEDLMEMVQKLQKVGSLEPRVEVLINRINEVQQAKKKANKDLGEARTICEALQKELDSLHGEKVHLKEILSKKQETLRILRLHCQEKESEAHRKHTMLQECKERISALNLQIEEEKNKQRQLRLAFEEQLEDLMGQHKDLWDFHMPE
notes: pMAT11 gives a His-MBP fusion with a TEV site; source: E. coli BL21(DE3), purified; not shown: MBP, N-terminal, kept

Target: the molecule itself
Assay: SEC-MALS; 6–20 mg/ml loaded on Superdex 200 Increase 10/300 GL in 20 mM Tris pH 8.0, 150 mM KCl, 2 mM DTT

Protein | stoichiometry N
B1 | 2
B2 | 2
B3 | 2
B4 | 2
B5 | 2

— publication PMC6823292, “Molecular structure of human synaptonemal complex protein SYCE1” (Chromosoma, 2019)
